Test results published in patent US20230257726A1 (published 2023).

Target: Wild-type ACE2(740)-Fc (human)
Assay: BLI, ACE2-Fc on tips, RBD in solution

Chain of Wild-type ACE2(740)-Fc (human) (chain, as listed by the source): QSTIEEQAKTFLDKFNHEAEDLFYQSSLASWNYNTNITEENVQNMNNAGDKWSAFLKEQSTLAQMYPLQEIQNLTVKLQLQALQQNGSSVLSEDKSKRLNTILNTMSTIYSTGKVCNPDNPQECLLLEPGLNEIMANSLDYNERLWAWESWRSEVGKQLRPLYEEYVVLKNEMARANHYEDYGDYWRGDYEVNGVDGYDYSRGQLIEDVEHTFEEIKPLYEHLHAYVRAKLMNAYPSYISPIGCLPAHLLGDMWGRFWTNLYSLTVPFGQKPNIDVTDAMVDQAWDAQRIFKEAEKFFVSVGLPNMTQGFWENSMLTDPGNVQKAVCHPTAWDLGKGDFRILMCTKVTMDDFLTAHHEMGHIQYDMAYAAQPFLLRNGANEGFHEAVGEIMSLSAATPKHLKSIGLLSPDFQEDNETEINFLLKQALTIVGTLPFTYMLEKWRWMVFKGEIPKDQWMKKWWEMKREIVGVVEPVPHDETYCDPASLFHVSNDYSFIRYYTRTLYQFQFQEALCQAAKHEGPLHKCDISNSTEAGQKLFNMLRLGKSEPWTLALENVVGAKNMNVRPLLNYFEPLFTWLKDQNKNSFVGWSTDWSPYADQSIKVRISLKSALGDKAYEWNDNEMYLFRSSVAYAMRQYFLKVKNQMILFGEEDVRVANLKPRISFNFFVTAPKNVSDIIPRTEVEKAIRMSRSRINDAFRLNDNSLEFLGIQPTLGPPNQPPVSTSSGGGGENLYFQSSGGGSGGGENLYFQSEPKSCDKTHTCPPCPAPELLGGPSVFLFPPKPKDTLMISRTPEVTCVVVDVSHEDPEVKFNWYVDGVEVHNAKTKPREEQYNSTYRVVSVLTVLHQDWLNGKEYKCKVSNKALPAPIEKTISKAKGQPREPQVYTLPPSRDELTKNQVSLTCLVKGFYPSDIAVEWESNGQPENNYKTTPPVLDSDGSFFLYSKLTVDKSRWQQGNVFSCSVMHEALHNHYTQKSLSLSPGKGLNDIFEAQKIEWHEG

B1: Human coronavirus NL63 (HCoV-NL63) spike RBD (ligand)
chain: QHTDINFTATASFGGSCYVCKPHQVNISLNGNTSVCVRTSHFSIRYIYNRVKSGSPGDSSWHIYLKSGTCPFSFSKLNNFQKFKTICFSTVEVPGSCNFPLEATWHYTSYTIVGALYVTWSEGNSITGVPYPVSGI
- Kd: 22 nM
